Legend:
[1] = biological target: T1, recombinant human tPA (rh-tPA: abcam ab92637) (UniProt P00750 36-562); experiment: ELISA; Plate 2, PBS, 4°C
[2] = biological target: T1, recombinant human tPA (rh-tPA: abcam …); experiment: ELISA; Plate 2, cynomolgus serum, 37°C
[3] = biological target: T1, recombinant human tPA (rh-tPA: abcam …); experiment: ELISA; Plate 1, PBS, 4°C
[4] = biological target: T1, recombinant human tPA (rh-tPA: abcam …); experiment: ELISA; Plate 1, human serum, 37°C
[5] = biological target: T1, recombinant human tPA (rh-tPA: abcam …); experiment: ELISA; Plate 2, mouse serum, 37°C
[6] = biological target: T1, recombinant human tPA (rh-tPA: abcam …); experiment: ELISA
[7] = biological target: T1, recombinant human tPA (rh-tPA: abcam …); experiment: ELISA; remark: listed apart in the source
[8] = biological target: T1, recombinant human tPA (rh-tPA: abcam …); experiment: ELISA; purified Fab
[9] = biological target: T1, recombinant human tPA (rh-tPA: abcam …); experiment: ELISA; Plate 1, human serum, 37°C; remark: listed apart in the source
[10] = biological target: T1, recombinant human tPA (rh-tPA: abcam …); experiment: ELISA; Plate 1, PBS, 4°C; remark: listed apart in the source
[11] = biological target: T1, recombinant human tPA (rh-tPA: abcam …); experiment: ELISA; Plate 2, mouse serum, 37°C; remark: listed apart in the source
[12] = biological target: T1, recombinant human tPA (rh-tPA: abcam …); experiment: ELISA; Plate 2, PBS, 4°C; remark: listed apart in the source
[13] = biological target: T1, recombinant human tPA (rh-tPA: abcam …); experiment: ELISA; Plate 1, PBS, 37°C
[14] = biological target: T1, recombinant human tPA (rh-tPA: abcam …); experiment: ELISA; Plate 1, human serum, 37°C; remark: listed apart in the source
[15] = biological target: T1, recombinant human tPA (rh-tPA: abcam …); experiment: ELISA; Plate 2, cynomolgus serum, 37°C; remark: listed apart in the source
[16] = biological target: T1, recombinant human tPA (rh-tPA: abcam …); experiment: ELISA; Plate 1, PBS, 37°C; remark: listed apart in the source
[17] = biological target: T1, recombinant human tPA (rh-tPA: abcam …); experiment: ELISA; Plate 2, mouse serum, 37°C; remark: listed apart in the source
[18] = biological target: T1, recombinant human tPA (rh-tPA: abcam …); experiment: ELISA; Plate 2, PBS, 4°C; remark: listed apart in the source
[19] = biological target: T1, recombinant human tPA (rh-tPA: abcam …); experiment: ELISA; Plate 1, PBS, 4°C; remark: listed apart in the source

T1 sequence (P00750 36-562): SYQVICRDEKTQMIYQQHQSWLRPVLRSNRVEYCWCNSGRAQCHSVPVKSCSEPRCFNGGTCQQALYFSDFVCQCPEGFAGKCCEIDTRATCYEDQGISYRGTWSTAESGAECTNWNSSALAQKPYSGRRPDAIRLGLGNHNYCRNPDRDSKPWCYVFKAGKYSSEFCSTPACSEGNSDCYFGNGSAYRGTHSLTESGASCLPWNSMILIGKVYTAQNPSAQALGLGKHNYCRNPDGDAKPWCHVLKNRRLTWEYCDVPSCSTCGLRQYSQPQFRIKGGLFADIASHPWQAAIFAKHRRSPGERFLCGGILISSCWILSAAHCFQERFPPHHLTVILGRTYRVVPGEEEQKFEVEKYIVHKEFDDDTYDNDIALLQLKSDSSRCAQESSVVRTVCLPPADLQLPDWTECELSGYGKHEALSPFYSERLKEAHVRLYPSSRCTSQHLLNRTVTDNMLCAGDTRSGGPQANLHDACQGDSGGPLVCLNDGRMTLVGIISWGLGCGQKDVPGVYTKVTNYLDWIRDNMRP

B1: TPAi-1 RHP/RKA (antibody, V domains shown)
VH: QVQLVQSGAEVKKPGASVKVSCKASGNTSYWINWVRQATGQGLEWMGRIDPGGGSTGYAQKFQGRVTMTRDTSISTAYMELSSLRSEDTAVYYCASYYYAMAYWGQGTLVTVSS
VL: DVVMTQSPLSLPVTPGEPASISCRSSQSIVHSNGNTYLDWYLQKPGQSPQLLIYKVSNRASGVPDRFSGSGSGTDFTLKISRVEAEDVGVYYCFQGSHVPWTFGGGTKVEIK
B1 showed an EC50 [1] of 0.304 nM, an EC50 [2] of 0.514 nM and an EC50 [3] of 0.229 nM. It also gave an EC50 [4] of 0.404 nM, an EC50 [5] of 0.403 nM and an IC50 [6] of 0.316 nM. The IC50 [7] was 0.365 nM.

B2: TPAi-1 RHP/RKA Fab (Fab, V domains shown)
VH: QVQLVQSGAEVKKPGASVKVSCKASGNTSYWINWVRQATGQGLEWMGRIDPGGGSTGYAQKFQGRVTMTRDTSISTAYMELSSLRSEDTAVYYCASYYYAMAYWGQGTLVTVSS
VL: DVVMTQSPLSLPVTPGEPASISCRSSQSIVHSNGNTYLDWYLQKPGQSPQLLIYKVSNRASGVPDRFSGSGSGTDFTLKISRVEAEDVGVYYCFQGSHVPWTFGGGTKVEIK
Binder B2 has an IC50 [8] of 1.62 nM, an EC50 [9] of 0.978 nM and an EC50 [10] of 1.45 nM. The EC50 [11] was 0.966 nM, the EC50 [12] was 1.75 nM and the EC50 [13] was 2.16 nM.

B3: TPAi-1 RHE/RKA (antibody, V domains shown)
VH: QVQLVQSGAEVKKPGASVKVSCKASGNTSYWINWVRQATGQGLEWMGRIDPGGGSTGYAQKFQGRVTMTRNTSISTAYMELSSLRSEDTAVYYCASYYYAMAYWGQGTLVTVSS
VL: DVVMTQSPLSLPVTPGEPASISCRSSQSIVHSNGNTYLDWYLQKPGQSPQLLIYKVSNRASGVPDRFSGSGSGTDFTLKISRVEAEDVGVYYCFQGSHVPWTFGGGTKVEIK
B3 was tested, and the EC50 [14] was 0.647 nM, the EC50 [15] was 0.717 nM and the EC50 [16] was 0.972 nM. For the same binder, the EC50 [17] was 0.694 nM, the EC50 [18] was 0.51 nM and the EC50 [19] was 0.596 nM.

Reference: patent US20210395393A1 (published 2021)
